Source: PMC3197643 (2011)

B1: V5-tagged full-length OX1R [mouse] / Myc-tagged Dynlt1 [mouse] (parent complex)
chain 1: MEPSATPGAQPGVPTSSGEPFHLPPDYEDEFLRYLWRDYLYPKQYEWVLIAAYVAVFLIALVGNTLVCLAVWRNHHMRTVTNYFIVNLSLADVLVTAICLPASLLVDITESWLFGQALCKVIPYLQAVSVSVAVLTLSFIALDRWYAICHPLLFKSTARRARGSILGIWAVSLAVMVPQAAVMECSSVLPELANRTRLFSVCDEHWADELYPKIYHSCFFIVTYLAPLGLMAMAYFQIFRKLWGRQIPGTTSALVRNWKRPSEQLEAQHQGLCTEPQPRARAFLAEVKQMRARRKTAKMLMVVLLVFALCYLPISVLNVLKRVFGMFRQASDREAVYACFTFSHWLVYANSAANPIIYNFLSGKFREQFKAAFSCCLPGLGPGSSARHKSLSLQSRCSVSKVSEHVVLTTVTTVLS
chain 2: MEDFQASEETAFVVDEVSSIVKEAIESAIGGNAYQHSKVNQWTTNVLEQTLSQLTKLGRPFKYIVTCVIMQKNGAGLHSASSCFWDSSTDGSCTVRWENKTMYCIVSTFGLSI

Variants of: B1
Assay: co-IP, quantification of Western blotting bands; parent: 100; read off a plot

percent of parent | Variant
~28 % vs OX1R wild-type | chain 1 T409A, chain 1 T412A
